{
  "source": "paper PMC3581551",
  "about": "“The N-Terminal β-Sheet of Peroxiredoxin 4 in the Large Yellow Croaker Pseudosciaena crocea Is Involved in Its Biological Functions” (PLoS ONE, 2013)",
  "molecular_target": "the molecule itself",
  "assay": "crystal structure; reduced form, 1.90 Å, space group C2; five subunits in the asymmetric unit (two dimers and a monomer), decamer (pentamer of dimers) by crystal symmetry; crystals at 16°C, 10% PEG MME 5,000, 0.1 M HEPES-NaOH pH 8.0, with 14 mM β-mercaptoethanol and 10 mM DTT",
  "data": [
    {"protein": "Pseudosciaena crocea peroxiredoxin 4 (Prx4), mature protein without the 29-residue signal peptide (enzyme) EEAAHVKNSQCHNYAGGHVYPGEAFRVPVSDHSLHLSKAKISKPAPQWEGTAVINGEFKELKLSDYRGKYLVFFFYPLDFTFVCPTEIIAFSDRVHEFRAINTEVVACSVDSQFTHLAWIITPRKQGGLGPMKIPLLSDLTHQISKDYGVYLEDQGHTLRGLFIIDEKGVLRQITMNDLPVGRSVDETLRLVQAFQYTDKHGEVCPAGWKPGSDTIIPDPSGKLKYFDKMK", "values": [
      {"measurement": "stoichiometry N", "result": 10}
    ]}
  ]
}
